Assays:
[1] = system: Myc-tagged full length Xenopus axin (FL Xaxin, amino acid residues 1-842)
[2] = system: T1, Myc-tagged C-term fragment of Xaxin (amino acid residues 429-713)
T1 sequence: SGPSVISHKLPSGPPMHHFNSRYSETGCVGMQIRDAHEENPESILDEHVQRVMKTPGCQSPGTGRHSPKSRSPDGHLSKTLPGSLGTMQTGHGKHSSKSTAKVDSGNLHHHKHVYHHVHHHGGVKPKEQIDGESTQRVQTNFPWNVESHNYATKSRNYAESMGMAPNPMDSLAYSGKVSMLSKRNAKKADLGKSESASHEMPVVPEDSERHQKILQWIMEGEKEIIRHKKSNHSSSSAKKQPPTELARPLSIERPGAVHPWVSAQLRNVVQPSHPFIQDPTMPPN

[3] = system: Myc-tagged deltaDIX construct of Xaxin (amino acid residues 1-778)
[4] = system: T2, Myc-tagged deltaRGS construct of Xaxin (amino acid residues 1-80 fused to residues 290-842)
T2 sequence: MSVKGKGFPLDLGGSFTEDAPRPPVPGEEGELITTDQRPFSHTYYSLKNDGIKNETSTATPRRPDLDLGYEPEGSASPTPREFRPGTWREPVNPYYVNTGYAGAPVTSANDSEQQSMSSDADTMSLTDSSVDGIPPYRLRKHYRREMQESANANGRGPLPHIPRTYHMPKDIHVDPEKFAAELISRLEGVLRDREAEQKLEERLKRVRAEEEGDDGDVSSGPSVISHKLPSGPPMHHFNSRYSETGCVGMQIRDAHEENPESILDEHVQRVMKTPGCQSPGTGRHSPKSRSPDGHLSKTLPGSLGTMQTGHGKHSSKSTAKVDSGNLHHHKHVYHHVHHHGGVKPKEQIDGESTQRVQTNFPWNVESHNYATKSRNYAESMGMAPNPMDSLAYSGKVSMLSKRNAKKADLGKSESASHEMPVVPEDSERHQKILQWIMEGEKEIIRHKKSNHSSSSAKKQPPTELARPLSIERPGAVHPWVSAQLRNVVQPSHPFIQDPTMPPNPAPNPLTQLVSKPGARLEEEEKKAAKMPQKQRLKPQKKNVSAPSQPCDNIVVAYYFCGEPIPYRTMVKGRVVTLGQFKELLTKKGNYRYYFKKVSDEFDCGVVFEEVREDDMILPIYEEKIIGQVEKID

[5] = system: Myc-tagged deltaGID construct of Xaxin (amino acid residues 1-324 fused to residues 504-842)
[6] = system: T3, Myc-tagged GID-1 fragment of Xaxin (amino acid residues 277-545)
T3 sequence: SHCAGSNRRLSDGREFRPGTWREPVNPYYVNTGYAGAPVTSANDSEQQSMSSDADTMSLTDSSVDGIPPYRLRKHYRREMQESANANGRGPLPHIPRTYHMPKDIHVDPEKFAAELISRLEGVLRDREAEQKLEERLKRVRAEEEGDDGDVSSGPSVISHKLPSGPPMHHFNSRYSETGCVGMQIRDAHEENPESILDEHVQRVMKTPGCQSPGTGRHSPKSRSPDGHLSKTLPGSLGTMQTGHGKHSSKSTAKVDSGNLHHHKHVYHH

[7] = system: Myc-tagged N-term fragment of Xaxin (amino acid residues 63-288)
Myc-tagged N-term fragment of Xaxin (amino acid residues 63-288), sequence (chain, as listed by the source): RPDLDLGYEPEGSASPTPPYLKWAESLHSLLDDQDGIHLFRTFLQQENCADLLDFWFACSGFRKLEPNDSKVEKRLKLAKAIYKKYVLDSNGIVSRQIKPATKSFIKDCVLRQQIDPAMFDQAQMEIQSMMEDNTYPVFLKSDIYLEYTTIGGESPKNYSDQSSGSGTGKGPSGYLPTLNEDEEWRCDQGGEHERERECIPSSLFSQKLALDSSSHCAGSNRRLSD

## GSK-3 beta (glycogen synthase kinase-3 beta) expressed in Xenopus oocytes
[1]
  GSK-3 beta-mediated tau phosphorylation in Xenopus oocytes (PHF-1 immunoblot): had no discernible effect on tau phosphorylation
[2]
  GSK-3 beta-mediated tau phosphorylation in Xenopus oocytes (PHF-1 immunoblot): had no effect on GSK-3 beta activity
[3]
  GSK-3 beta activity (tau phosphorylation assay in Xenopus oocytes): partially inhibited GSK-3 beta activity
[4]
  tau protein phosphorylation mediated by GSK-3 beta in Xenopus oocytes: inhibited tau protein phosphorylation mediated by GSK-3 beta in a dose-dependent manner
[5]
  GSK-3 beta activity in the tau-phosphorylation assay in Xenopus oocytes: had no discernible effect on GSK-3 beta activity in the tau-phosphorylation assay
[6]
  GSK-3 beta mediated tau phosphorylation in Xenopus oocytes: bound GSK-3 beta and inhibited GSK-3 beta mediated tau phosphorylation
  GSK-3 beta-mediated tau phosphorylation in Xenopus oocytes (PHF-1 immunoblot): virtually complete inhibition of GSK-3 beta-mediated tau phosphorylation
[7]
  GSK-3 beta-mediated tau phosphorylation in Xenopus oocytes (PHF-1 immunoblot): had no effect on GSK-3 beta activity
